According to paper PMC9935901, “B-lymphoid tyrosine kinase-mediated FAM83A phosphorylation elevates pancreatic tumorigenesis through interacting with β-catenin” (Signal Transduction and Targeted Therapy, 2023):
“Also recorded” adds a separate entry of the source.

B1: GFP-FaP2: FaP2 fused with GFP via a flexible linker ((GGGGS)n), pEGFP-C1 expression vector, transfected (protein)
chain: ASAEKPYLKEKSSATVYFQTVKHNNIRDLVRRCITRTSQVLVILMDVFTDVEIFCDILEAANKRGVFVCVLLDQGGVKLFQEMCDKVQISDSHLKNISIRSVEGEIYCAKSGRKFAGQIREKFIISDWRFVLSGSYSFTWLCGHVHRNILSKFTGQAVELFDEEFRHLYASSKPVMGLKSPRL
modifications: left off: EGFP (from the vector pEGFP-C1), end not stated, kept
notes: FaP2 fused with GFP via a flexible linker ((GGGGS)n), pEGFP-C1 expression vector, transfected
B2: GFP-FaP3: FaP3 fused with GFP via a flexible linker ((GGGGS)n), pEGFP-C1 expression vector, transfected (protein)
chain: ASAEKPYLKEKSSATVYFQTVKHNNIRDLVRRCITRTSQVLVILMDVFTDVEIFCDILEAANKRGVFVCVLLDQGGVKLFQEMCDKVQISDSHLKNISIRSVEGEIYCAKSGRKFAGQIREKFIISDWRFVLSGSYSFTWLCGHVHRNILSKFTGQAVELFDEEFRHLYASSKPVMGLKSPRL
modifications: left off: EGFP (from the vector pEGFP-C1), end not stated, kept
notes: FaP3 fused with GFP via a flexible linker ((GGGGS)n), pEGFP-C1 expression vector, transfected
B3: Wnt3a: Wnt agonist, Abcam ab153563 (protein, UniProt P56704 19-352, looked up)
Protein Wnt-3a: SYPIWWSLAVGPQYSSLGSQPILCASIPGLVPKQLRFCRNYVEIMPSVAEGIKIGIQECQHQFRGRRWNCTTVHDSLAIFGPVLDKATRESAFVHAIASAGVAFAVTRSCAEGTAAICGCSSRHQGSPGKGWKWGGCSEDIEFGGMVSREFADARENRPDARSAMNRHNNEAGRQAIASHMHLKCKCHGLSGSCEVKTCWWSQPDFRAIGDFLKDKYDSASEMVVEKHRESRGWVETLRPRYTYFKVPTERDLVYYEASPNFCEPNPETGSFGTRDRTCNVSSHGIDGCDLLCCGRGHNARAERRREKCRCVFHWCCYVSCQECTRVYDVHTCK

What was measured:
[1] = tested on: β-catenin destruction complex; assay: Co-IP, β-catenin with AXIN1 and GSK3β in PANC-1 cells; assay type: cell-based, human; settings: peptide treatment or GFP-fusion transfection, n = 3
β-catenin stability = assay: β-catenin protein stability upon CHX treatment in PANC-1 cells; assay type: cell-based, human; settings: peptide treatment or GFP-fusion transfection, n = 3
Procedure: Fig. 8 Peptides disrupting FAM83A-β-catenin interaction inhibit Wnt/β-catenin signaling. a Identification of β-catenin binding α-helical peptide(s) in FAM83A DUF1669 (140aa–210aa) region. The secondary structure of the FAM83A DUF1669 (140aa–210aa) region was analyzed based on the PDB data (4urj). b The FaPC, FaP1, FaP2, and FaP3 fragments were constructed into pEGFP-C1 expression vector connection with a flexible linker ((GGGGS)n). The interactions between β-catenin and the four fragments were evaluated with Co-IP assays in HEK293T cells (n = 3). c, d The predicted docking model of FaP2, FaP3 with β-catenin 530–666 aa region. e, f Kinetic interactions of cell-penetrating peptide TAT-linked peptides with β-catenin was determined by surface plasmon resonance analyses. g Effect of CP-FaP2 and CP-FaP3 on β-catenin-FAM83A and β-catenin-TCF4 interactions in PANC-1 cells. Cells were treated with control (CP-FaPC), CP-FaP2, and CP-FaP3 (5 μM) for 24 hours. Cell lysates were used for IP and western blotting with the indicated antibodies (n = 3). h The schematic diagram of 7TGC plasmid construction and the fluorescence images of PANC-1 cells with control, CP-FaP2, and CP-FaP3 treatment. […]

[2] = tested on: β-catenin ubiquitination (HEK293T cells); assay: β-catenin ubiquitination in HEK293T cells; assay type: cell-based; settings: GFP-fusion transfection, n = 3
FAM83A expression = FAM83A expression after Wnt3a treatment in PANC-1 cells; assay type: cell-based, human
From the text: Fig. 7 FAM83A is a direct downstream target of Wnt/β-catenin signaling and forms positive feedback in pancreatic cancer cells. a–d Representative western blotting images of the protein and mRNA levels of FAM83A after Wnt3a treatment for indicated concentrations and times in PANC-1 cells (n = 3). e, f The protein and mRNA levels of FAM83A after β-catenin knockdown in PANC-1 cells. Cell lysates were used for western blotting with the indicated antibodies (n = 3). g FAM83A gene promoter-reporter luciferase activity in HEK293T cells with or without β-catenin overexpression (left) and PANC-1 cells with or without β-catenin knockdown (right) (n = 6). h The schematic diagram of FAM83A gene promoter truncation and deletion generation. i PACN-1 cells were subjected to chromatin immunoprecipitation using antibodies against TCF4 and IgG, and the fold change of TCF/IgG was quantified (n = 3). j Predicted TCF4/LEF-binding sequence in the FAM83A gene promoter from the JASPAR website. k Schematic diagram of the generated luciferase report plasmids and the relative luciferase activity after transfection with the plasmids in HEK293T cells with or without Wnt3a treatment (n = 6). l A ChIP experiment was used to detect binding between the β-catenin-TCF4 complex and the predicted TCF/LEF-binding element in the FAM83A promoter (TBE1 and TBE2). […]

FAM83A localization = assay: FAM83A nuclear translocation upon Wnt3a treatment; assay type: cell-based; settings: confocal microscopy, nucleo-plasmic separation; Wnt3a 100 ng/mL; HEK293T, PANC-1
Procedure: Protein interactions were analyzed by western blotting (n = 3). Scale bars: 10 µm. *P < 0.05; **P < 0.01; ***P < 0.001. Data were presented as mean ± SD
Protein interactions were analyzed by western blotting (n = 3). c The level of β-catenin ubiquitination with or without Flag-tagged FAM83A overexpression or BLK kinase knockdown after MG132 treatment in HEK293T cells. Cell lysates were used for IP and western blotting with the indicated antibodies (n = 3). d The level of β-catenin ubiquitination with or without Flag-tagged FAM83A, Y138A, or Y138D mutants overexpression after MG132 treatment in HEK293T cells. […] Cell lysates were used for IP and western blotting with the indicated antibodies (n = 3). f The localization of Flag-tagged FAM83A and its Y138A, Y138D mutants in HEK293T cells were analyzed with confocal microscopy. g The protein level of cytoplasmic and nuclear β-catenin in HEK293T cells with or without Flag-tagged FAM83A, Y138A, or Y138D mutants transfection and Wnt3a treatment. […]

| Molecule | assembly of β-catenin destruction complex [1] | stability of β-catenin (β-catenin stability) | β-catenin ubiquitination [2] | FAM83A mRNA level (FAM83A expression) | FAM83A protein level (FAM83A expression; n = 3) | FAM83A nuclear translocation (FAM83A localization) |
| --- | --- | --- | --- | --- | --- | --- |
| B1 | improved | decreased | improved | – | – | – |
| B2 | improved | decreased | improved | – | – | – |
| B3 | – | – | – | elevated both the protein and mRNA levels of FAM83A in dose- and time-dependent manners | elevated both the protein and mRNA levels of FAM83A in dose- and time-dependent manners | FAM83A shifted from the cell cytoplasm to nucleus upon Wnt3a treatment; also recorded: increased the nuclear translocation of FAM83A |
